Starred links: 1 amine or outer side, 2 acyl side, 3 side chain; linkers in the order of their positions; H or OH if unused. Positions of bridges follow the written chain, without caps; N, C: chain ends. Non-standard residues stand in square brackets, D forms with d. Primed or numbered codes have the meaning given here. PyrS2″ = (S)-3-amino-1-((pent-4-en-1-yloxy)carbonyl)pyrrolidine-3-carboxylic acid (stapling residue), C=CCCCOC(=O)N1CC[C@@](N[*:1])(C(=O)[*:2])C1; B5(4) = 2,2-bis(4-pentenyl)glycine = 2-amino-2-(pent-4-en-1-yl)hept-6-enoic acid (stitching residue), C=CCCCC(CCCC=C)(N[*:1])C(=O)[*:2]; TfeGA = (S)-2-amino-3-((carboxymethyl)(2,2,2-trifluoroethyl)amino)propanoic acid, O=C([C@H](CN(CC(=O)[*:3])CC(F)(F)F)N[*:1])[*:2]; (4Pippip)GlnR″ = (S)-5-([1,4'-bipiperidin]-1'-yl)-2-amino-5-oxopentanoic acid, O=C(CC[C@H](N[*:1])C(=O)[*:2])N1CCC(N2CCCCC2)CC1; (EtSSHex)AspE = (S)-2-amino-4-(2-(hexyldisulfaneyl)ethoxy)-4-oxobutanoic acid, CCCCCCSSCCOC(=O)C[C@H](N[*:1])C(=O)[*:2]; B5(19) = 2-amino-2-(pent-4-en-1-yl)hept-6-enoic acid (bis(4-pentenyl)glycine), C=CCCCC(CCCC=C)(N[*:1])C(=O)[*:2]; B5 = 2-amino-2-(pent-4-en-1-yl)hept-6-enoic acid, C=CCCCC(CCCC=C)(N[*:1])C(=O)[*:2]; Phe(4-NH2) = Nc1ccc(C[C@H](N)C(=O)O)cc1; Bta = N[C@@H](Cc1csc2ccccc12)C(=O)O; αAllylPro = C=CC[C@@]1(C(=O)O)CCCN1; tBuAla = CC(C)(C)C[C@H](N)C(=O)O; 3Thi = N[C@@H](Cc1ccsc1)C(=O)O; S8 = C=CCCCCCC[C@](C)(N)C(=O)O; hSer = N[C@@H](CCO)C(=O)O Where only a bound is given, the exact number is not on record here.

T1: full-length beta-Catenin (Uniprot ID P35222) (Homo sapiens (Human), UniProt P35222 1-781)
T1 construct: the AlphaScreen used a Histidine (Nickel Chelate) detection kit, so a His tag is likely but not described; also called B-Catenin; bCat
T1 sequence: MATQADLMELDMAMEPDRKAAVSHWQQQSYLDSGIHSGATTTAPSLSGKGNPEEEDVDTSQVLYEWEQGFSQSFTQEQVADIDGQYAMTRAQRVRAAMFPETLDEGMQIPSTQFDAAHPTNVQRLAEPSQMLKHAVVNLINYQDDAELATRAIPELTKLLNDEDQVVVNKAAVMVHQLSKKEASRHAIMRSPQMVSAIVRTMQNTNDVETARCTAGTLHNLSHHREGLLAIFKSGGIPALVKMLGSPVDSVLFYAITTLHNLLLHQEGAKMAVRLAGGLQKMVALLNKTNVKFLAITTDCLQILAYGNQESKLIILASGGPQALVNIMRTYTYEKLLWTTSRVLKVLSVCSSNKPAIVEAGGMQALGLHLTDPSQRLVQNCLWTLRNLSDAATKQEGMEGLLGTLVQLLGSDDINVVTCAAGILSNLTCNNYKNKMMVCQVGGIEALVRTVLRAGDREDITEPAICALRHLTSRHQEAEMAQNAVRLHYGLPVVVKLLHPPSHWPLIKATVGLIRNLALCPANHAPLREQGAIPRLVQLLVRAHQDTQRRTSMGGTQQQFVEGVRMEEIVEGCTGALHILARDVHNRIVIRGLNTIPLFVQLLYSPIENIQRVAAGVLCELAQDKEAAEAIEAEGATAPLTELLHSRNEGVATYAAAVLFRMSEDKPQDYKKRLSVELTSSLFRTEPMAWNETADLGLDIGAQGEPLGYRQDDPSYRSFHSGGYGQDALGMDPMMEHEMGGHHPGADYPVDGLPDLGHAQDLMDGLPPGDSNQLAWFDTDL

T2: B-cat-Halo (beta-catenin HaloTag NanoBRET construct expressed in HEK293 cells) (UniProt P35222 1-781)
T2 sequence (looked up): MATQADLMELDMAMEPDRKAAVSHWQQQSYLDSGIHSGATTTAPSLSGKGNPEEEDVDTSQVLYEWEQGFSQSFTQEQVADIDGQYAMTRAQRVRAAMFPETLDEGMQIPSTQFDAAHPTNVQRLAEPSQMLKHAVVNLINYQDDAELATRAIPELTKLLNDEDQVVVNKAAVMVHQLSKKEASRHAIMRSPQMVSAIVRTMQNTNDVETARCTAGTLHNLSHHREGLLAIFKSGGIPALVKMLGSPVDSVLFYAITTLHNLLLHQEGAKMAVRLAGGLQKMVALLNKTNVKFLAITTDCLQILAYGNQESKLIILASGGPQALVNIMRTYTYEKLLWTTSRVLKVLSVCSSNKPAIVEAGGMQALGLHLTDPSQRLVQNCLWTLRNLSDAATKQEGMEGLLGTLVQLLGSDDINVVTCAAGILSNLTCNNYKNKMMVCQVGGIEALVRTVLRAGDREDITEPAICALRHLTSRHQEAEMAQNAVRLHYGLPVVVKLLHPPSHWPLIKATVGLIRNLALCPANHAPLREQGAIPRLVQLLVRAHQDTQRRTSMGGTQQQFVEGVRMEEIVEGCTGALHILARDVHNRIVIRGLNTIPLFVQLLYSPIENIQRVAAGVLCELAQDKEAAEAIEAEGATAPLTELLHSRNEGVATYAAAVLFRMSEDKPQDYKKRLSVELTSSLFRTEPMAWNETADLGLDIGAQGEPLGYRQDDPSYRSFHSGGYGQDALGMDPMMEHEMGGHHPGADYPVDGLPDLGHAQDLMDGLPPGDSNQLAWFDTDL

B1: I-294 (peptide)
peptide: Ac-[αAllylPro]DA[B5(4)]DDAAFQ[S8]F[Bta]Q-NH2
modifications: staple 1-4, 4-11
notes: Ac-PL3-Asp-Ala-B5-Asp-Asp-Ala-Ala-Phe-Gln-S8-Phe-BztA-Gln-NH2; stapled peptide composition
B2: I-299 (peptide)
peptide: Ac-[αAllylPro]D[hSer][B5(4)]DDAAFQ[S8]F[Bta]A-NH2
modifications: staple 1-4, 4-11
notes: Ac-PL3-Asp-Hse-B5-Asp-Asp-Ala-Ala-Phe-Gln-S8-Phe-BztA-Ala-NH2; stapled peptide composition
B3: I-291 (peptide)
peptide: XDAXDDAAFVXFWA
modifications: not fully specified; N-terminal acetyl (Ac); C-terminal amide (NH2); PL3 at 1, B5 at 4, S8 at 11; stapled PL3-B5 and B5-S8
notes: Ac-PL3-Asp-Ala-B5-Asp-Asp-Ala-Ala-Phe-Val-S8-Phe-Trp-Ala-NH2; stapled peptide composition
B4: I-292 (peptide)
peptide: XDAXDDAAFVXFWA
modifications: not fully specified; N-terminal acetyl (Ac); C-terminal amide (NH2); PL3 at 1, B5 at 4, S8 at 11; stapled PL3-B5 and B5-S8
notes: as for B3
B5: I-316 (peptide)
peptide: Ac-[αAllylPro]DA[B5]DDAAFQ[S8]FWA-NH2
modifications: staple 1-4, 4-11
notes: Ac-PL3-Asp-Ala-B5-Asp-Asp-Ala-Ala-Phe-Gln-S8-Phe-Trp-Ala-NH2; stapled peptide composition
B6: I-324 (peptide)
peptide: Ac-[αAllylPro]DA[B5(4)]D[Phe(4-NH2)]AAFV[S8]FWQ-NH2
modifications: staple 1-4, 4-11
notes: Ac-PL3-Asp-Ala-B5-Asp-4AmPhe-Ala-Ala-Phe-Val-S8-Phe-Trp-Gln-NH2; stapled peptide composition
B7: I-311 (peptide)
peptide: XDAXDDAAFVXFWQ
modifications: not fully specified; N-terminal acetyl (Ac); C-terminal amide (NH2); PL3 at 1, B5 at 4, S8 at 11, 3ClF (printed 3C1F) at 12; stapled PL3-B5 and B5-S8
notes: Ac-PL3-Asp-Ala-B5-Asp-Asp-Ala-Ala-Phe-Val-S8-3C1F-Trp-Gln-NH2; stapled peptide composition
B8: I-319 (peptide)
peptide: XDAXDDAAFVXFWQ
modifications: not fully specified; N-terminal acetyl (Ac); C-terminal amide (NH2); PL3 at 1, B5 at 4, S8 at 11, 2FF at 12; stapled PL3-B5 and B5-S8
notes: Ac-PL3-Asp-Ala-B5-Asp-Asp-Ala-Ala-Phe-Val-S8-2FF-Trp-Gln-NH2; stapled peptide composition
B9: I-312 (peptide)
peptide: XDAXDDAAFVXFWQ
modifications: not fully specified; N-terminal acetyl (Ac); C-terminal amide (NH2); PL3 at 1, B5 at 4, S8 at 11, 4ClF (printed 4C1F) at 12; stapled PL3-B5 and B5-S8
notes: Ac-PL3-Asp-Ala-B5-Asp-Asp-Ala-Ala-Phe-Val-S8-4C1F-Trp-Gln-NH2; stapled peptide composition
B10: I-314 (peptide)
peptide: XHAXDEAAFVXFWQ
modifications: not fully specified; N-terminal acetyl (Ac); C-terminal amide (NH2); PL3 at 1, B5 at 4, S8 at 11; stapled PL3-B5 and B5-S8
notes: Ac-PL3-His-Ala-B5-Asp-Glu-Ala-Ala-Phe-Val-S8-Phe-Trp-Gln-NH2; stapled peptide composition
B11: I-310 (peptide)
peptide: XDAXDDAAFVXFWQ
modifications: not fully specified; N-terminal acetyl (Ac); C-terminal amide (NH2); PL3 at 1, B5 at 4, S8 at 11, 3ClF (printed 3C1F) at 12; stapled PL3-B5 and B5-S8
notes: as for B7
B12: I-315 (peptide)
peptide: XHAXDEAAFVXFWQ
modifications: not fully specified; N-terminal acetyl (Ac); C-terminal amide (NH2); PL3 at 1, B5 at 4, S8 at 11; stapled PL3-B5 and B5-S8
notes: as for B10
B13: I-318 (peptide)
peptide: XDAXDDAAFVXFWQ
modifications: not fully specified; N-terminal acetyl (Ac); C-terminal amide (NH2); PL3 at 1, B5 at 4, S8 at 11, 2FF at 12; stapled PL3-B5 and B5-S8
notes: as for B8
B14: I-313 (peptide)
peptide: XDAXDDAAFVXFWQ
modifications: not fully specified; N-terminal acetyl (Ac); C-terminal amide (NH2); PL3 at 1, B5 at 4, S8 at 11, 4ClF (printed 4C1F) at 12; stapled PL3-B5 and B5-S8
notes: as for B9

The first experiment addresses T1, full-length beta-Catenin (Uniprot ID …). Kind of experiment: FP competition vs 5FAM-TCF4(10-53) probe on full-length beta-catenin. The method, then: The plate was incubated protected from light for 60 minutes at 20° C. prior to read. Reads were performed on a CLARIOstar plate reader (BMG Labtech) in duplicate, and data were fitted to a 1:1 binding model with hill slope using an in-house script. All provided concentrations are final concentrations.
Usually EC50 stands for the concentration that produces a half-maximal response. A high value points to weaker potency. Regarding B1, the EC50 is 0.13 µM.

In turn, B2 registered a concentration giving a half-maximal response (EC50) of 1.3 µM.

With B3, the 50% effective concentration (EC50) amounted to 3.13 µM.

With B4, the concentration for a half-maximal effect (EC50) is 1.87 µM.

Take B5: the half-maximal effective concentration (EC50) is 3.98 µM.

Another experiment shares this target. As to the kind of experiment: AlphaScreen competition vs biotin-TCF4(10-53) on full-length beta-catenin. The method, then: Equal volume of the titrated peptide was added to the plate and incubated for 15 minutes at 20° C. Then 4 uL of donor and 4 uL acceptor beads at 10 ug/mL were added to the plate, for a 16 uL reaction pool and protected from light for 60 minutes at 20° C. prior to read. Reads were performed on a CLARIOstar plate reader (BMG Labtech) in duplicate, and data were fitted to a 1:1 binding model with hill slope using an in-house script. All provided concentrations are final concentrations.
The molecule B6 returned a half-maximal effective concentration (EC50) of 1.75 µM.

In turn, B7 came in with an EC50 of 1.24 µM.

The molecule B8 displayed an EC50 of 0.054 µM.

As for B9, the EC50 is at least 10 µM.

B10: the EC50 is at least 10 µM.

On to B11, for which a half-maximal response (EC50) required 3.24 µM.

B1 displayed an EC50 of 0.04 µM.

Consider B12, for which the concentration giving a half-maximal response (EC50) worked out at 9.9 µM.

As to B13, the concentration for a half-maximal effect (EC50) is 0.121 µM.

B2 displayed an EC50 of 0.189 µM.

Molecule B14 registered a concentration giving a half-maximal response (EC50) of 3.6 µM.

As to B3, the EC50 was found to be 0.327 µM.

On to B4, for which the EC50 was found to be 0.187 µM.

The molecule B5 showed a concentration giving a half-maximal response (EC50) of 0.136 µM.

A further experiment addresses T2, B-cat-Halo (beta-catenin HaloTag …). As to the kind of experiment: cell-based or functional assay.
Take Ac-[αAllylPro]D[tBuAla][B5(4)]D[(EtSSHex)AspE]AAFL[PyrS2″][3Thi][Bta]Q-NH2 (staple 1-4, 4-11) [I-1962]: the “NanoBRET Abs IC50” value is above 20 µM.

With Ac-[αAllylPro]D[tBuAla][B5(19)]D[TfeGA]AAF[(4Pippip)GlnR″][PyrS2″][3Thi][Bta]Q-NH2 (staple 1-4, 4-11) [I-1940], the “NanoBRET Abs IC50” value came out at 15.4 µM.

The values are drawn from patent US20240116985A1 (published 2024).
